In PMC2199964 one finds percent of the protein removed from the extract by Suc1 beads data, which are given here for 1 substance.

In this test the target is Suc1 protein coupled to CNBr-Sepharose beads (UniProt P08463). Kind of test: pull-down.

Bounds are passed on as bounds.

Sequence of Suc1 protein coupled to CNBr-Sepharose beads (P08463 whole entry): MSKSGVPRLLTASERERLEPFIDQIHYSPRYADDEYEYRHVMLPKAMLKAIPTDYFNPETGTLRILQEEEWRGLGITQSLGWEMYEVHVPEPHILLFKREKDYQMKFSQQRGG

Take “Xenopus cyclin E, endogenous in interphase egg extract (natural protein)”: the percent of the protein removed from the extract by Suc1 beads is greater than 90%.
